Residue numbers refer to the chain shown, from its start.
B1: SEQ ID NO:49: amidohydrolase 2, Streptomyces sp. SPB78 (protein, listed as Streptomyces sp.)
chain: MAKIIALEEHFSDPAVAKAGAARARALSPGFAASYSPASGLPYSPSPEVLENLAEKRLADMDAGGITMQVLSGLGAQTVPADVAPALVAGSNDKAAAAVRAHPDRFAAFAALPTATPEAAVAELDRSVNELGFVGTLIMGRTEGEFLDAPRFEPILARAAALKVPVFLHPGVPPREITDSNYAAGLPTGIGTRLQTAAWGWHQETAVHFLHLVHSGVLDRYPDLQFILGHWGEMIPFYLDRVDEALPQRATGLDRSFHEYFRENVYLAPSGMWSQAQLRFCLETVPLERIVFAVDYPFIGNEGAVPFLEKAELPQADKRKIAHENAERLLGL
B2: SEQ ID NO:54: putative decarboxylase, Streptomyces sp. Tu6071 (protein, listed as Streptomyces sp.)
chain: B1 chain with R25Q, T116A, V128I, D223G, Q315E
B3: SEQ ID NO:52: putative decarboxylase, Streptomyces sp. SA3_actG (protein, listed as Streptomyces sp.)
chain: B1 chain with R25Q, G75S, T116A, M234T, V285F, Q315E
B4: SEQ ID NO:48: amidohydrolase, Amycolatopsis mediterranei U32 (protein, listed as Amycolatopsis mediterranei)
chain: MASMKLYGLEEHFVTADVIEAWRRRDPGLAEPMMKWAVASDITPALLDVDGGRIAAMDDAGIDTTVLSLTTPGLQNLDAAEAVALQAPTNDLIAAAVRRHPGRFQGFATLATSAPAAAADELRRAVTELGLNGALVNANSRGRALDAPGFWDIYEAAEDLRAPVYLHPGVPVPAVTEAYYRGFGEPVNSMLATGAFGWHYDAGLTILRMIVAGVFDRFPGLQVILGHWGEVVLFYLDRVAAMDKLTALRRPIAEYFRSNIFITPGGISSHKYLRWSLETVGVERIMYASDYPFNTERAGSARRFLDTAPVDEAGRERIAYRNWEELIAGIRR
B5: SEQ ID NO:53: amidohydrolase, Granulicella tundricola MP5ACTX9 (protein, listed as Granulicella tundricola)
chain: MARTITLEEHFVTDSFLRATGAYDKPAPPWLAQLQPKLLDLGDGRIAAMDEAGIDLQVLSLAALGFDALDAATATPLVHDINDELAAAVRANPTRLAAFASLALKDPQSAARELERAIQKLGFRGVLLDGTTDGLFLDDPRFTPVFEAAVALNVPIYLHPAPPPESVFDTYFTGLPEGVGQMLSIAGWGWHAETALHTLRLITNGVFDRYPTLQLIIGHMGEMLPMALARTSKALSHAARLRQPVAAYFQSNIHLTTSGYFTQPPLRCALDVVGIDRLMFSIDYPFSANTLGRDYLTELEQTLTPEDLAKLIHRNAESLLNLS
B6: SEQ ID NO:51: TIM-barrel fold metal-dependent hydrolase, Mycobacterium gilvum Spyr1 (protein, listed as Mycobacterium gilvum)
chain: MARVIAIEEHYAHPGLQPAEALANLRKHPQLARIQDKLEDLGAGRLADMDAAGIDMQVLSHTVPGAEALPAAQAVDVVRQTNDDLAEVIAAHPDRFAGFAALPMRDPQAAATELQRAVGTLGFCGAMINGLIEGRFLDHPDFTPLLSTAADLGVPLYLHPSFPPPQVAQIYFGGLPPVLADLLATAGWGWHAETALHVLRLISTGVFDRLPELRVIVGHMGEMIPFALARIDTVLSPMTELRQPVAQYFQTNVWFTTSGYTTFPPLQCALSTVGIDRLIFSVDYPYTDNASARALLDTAPISPVDREKLAHATVEALLRV
B7: SEQ ID NO:50: hypothetical protein SSMG_03140, Streptomyces sp. AA4 (protein, listed as Streptomyces sp.)
chain: MARIVTLEEHWTDPAVTAAGMPNLLDHVPGYAAAFDPDTGMPYPRHPELLEDLGAARIADMDRHGITTQVLSLVNTFLPADVAPRLTAAANDAMAAAVEAFPGRFAAFATLPTAVPGAAADELRRCVGELGFVGTMIMGRTDGEFLDQPRFDPILRAASDLSVPVYLHPAPPPVAVSEASYAGGLSPAVSAAFRLAAWGWHQETAVHLLHLVLAGVLDRYPGLQFVLGHWGEFIPFYLDRLDESMPRRMTGLDRTFREYFRDNVFITPSGMFSQAQLRYCADTVGTDRIIHSVDFPMLGNEGAVSFLTDSHLSREDQEKIAHGNADALLGLG
B8: SEQ ID NO:46: decarboxylase, Rhodococcus opacus B4 (protein, listed as Rhodococcus opacus)
chain: MARIITLEEHYLDPAIAAASAPLARELSPDFAAAYDPASGLSYTPSAQVLQDLGQRRIADMDTHGISMQVLSCLTTQQVPADVAPDLVRAANDTAAAAVRAHPDRFAAFAALPTTAPDAAATELARCIDDLGFVGTMINGRTDGEFLDAPRFDPILATAAARNVPIYLHPAVPPRATSDSNYAGLAPLVTARLQTSAWGWHQETAVHFLHLVLSGVLDRYPNLQFILGHWGEMIPFYLDRLDEALPQAVTNLDRTISDYVRENVYITPSGMFNQAQLQYCVETLGVDRILYSVDYPFIGNDGAVSFLDEANLPDEAKHQIAHQNTEKLLGL
B9: SEQ ID NO:47: hypothetical protein SOD_m00560, Serratia odorifera 4Rx13 (protein, listed as Serratia odorifera)
chain: MAKIICLEEHTLDKALVMASMPAALAQAPFLSDWGKTITDGNLPDRSRPQIEKNDLINVKGADIGRGRLDDMDEAGITMQVLSVGGFPHLISAAEGVDLNRAANDRLANAVNAHPDRFAAFATLPWAQPDAAEKELERAVKELGFKGALLNGRPSIHFLDHPDYDGLLARFNALGVPLYLHPGLPVRSVQQAYYSGFSDEVTARLSMFGWGWHHEAGIHLLRLILSGAFDKYPNLQVISGHWGEMLPFWLQRLDDSLPQAATGLRRTITQTFREQVYVTPSGMLTLPHFQFIYALLGAERILFSVDYPYQTLDGVKAFIQSLPVPEEAKEAIAFRNAERLFGLTS

Assay: 14C assay with IPTG-induced recombinant E. coli cells (14CO2 capture from [14C]-carboxyl-labeled dicamba)
Conditions: E. coli cell assay, 108 sequences tested

Molecule	decarboxylation activity of dicamba
B1	showed decarboxylation activity of dicamba
B2	showed decarboxylation activity of dicamba
B3	showed decarboxylation activity of dicamba
B4	showed decarboxylation activity of dicamba
B5	showed decarboxylation activity of dicamba
B6	showed decarboxylation activity of dicamba
B7	showed decarboxylation activity of dicamba
B8	showed decarboxylation activity of dicamba
B9	showed decarboxylation activity of dicamba

Source: patent US20140287419A1, “Compositions Having Dicamba Decarboxylase Activity and Methods of Use” (priority 2013, published 2014)
